Assay results published in the domain aggregation screens of Martell et al. (2025).

Assay: soluble fraction after stress (log2 fold change); higher = more stays soluble; pooled small domains, quantitative proteomics
Settings: stress: 75 degC
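Also: 20 min heating vs room temperature control held 20 min.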

| Sequence | soluble fraction (log2) |
| --- | --- |
| HMRIDVWLAENGFAPSRQKAQDLIAAGRVFQTDPSGRRQKVSKASAAVDPALSPKIEVIPDPE | -0.0608 |
| HMRILGIDPGYAITGYSIIDYVGNKFKLIDSGAVLTKAGVSFPLRLTKIYDDLSMIIDEYKPDA | 0.0296 |
| HMRIPANIAEDIKKLQKKEHHLHHHLGRDPFDDELAKELEWDTEQVSEIRQMIKNPELLEELLEAEREEE | 0.0316 |
| HMRITEQRRTLAKLFADTPGYLSPKDVYDYMGRFYPGLSFDTVYRNLRLLDELGVLEQVVFEDGVKFK | -0.847 |
| HMRIWTISDLYKNVEDKKVSLAVFSEDNDSNKVNVLDINGEEHSVNLLKADLPTLVDLFRKNDVRFAVRSN | -0.116 |
| HMRIWTPEMIKEYIISSNGKEPLNSHYYSTNHPSIYAAAERIFGSWGNAINAAGLDYNAIRKYK | -0.488 |
| HMRIYFSPSEIGFYHESDKQAYLLAGTWPNDLLEISEKWFLYLLEGQQKGKVITVNDYDQPVLVD | -2.9 |
| HMRIYTKDEYLAELSRYLHKLPQDDYESAMAYFREYFEEAGPENEAQAMRDLGTPKEAASEILQNLLH | -0.401 |
| HMRKDYTVLYSAVNAEEATEIVSKLQESGVAYQYKDNGDVLVDKKQVDKVRAQLAQEGYPKS | 0.0467 |
| HMRKIEDVLRLHAQGMSTRRIALATGVGKTTVIEYLRRAAVAGLSWPLPEGLDEEALERRVFPPPP | -2.59 |
| HMRKIFPFNPNFITDQRGYFLGMSTSEIDRLHHFRAANKWIQSAQEFQVVTKVSNAWLSEFSPYFNFP | -3.87 |
| HMRKKTYEIITDDLRRMIEAGLIRPGEKLGAIDQLAAKYRVGRSTVREALSHLKALGLVESRQGGGTYVTK | 0.375 |
| HMRKNVAGITPNVYGMGLKDAVYLLENAGYRVKVNGRGNVVRQSINSGTRIIKGQLIILDLD | -3.62 |
| HMRKSNADALDGKTGIVKEEIKTGGYGYVGIDGDMWRSISESGEAIPAGTKVVVISHESIILTVKPA | -2.23 |
| HMRKTLASTAYDSIKAGIVSGEINNNLLLSENTLAKILNMSRTPIREAIKRLEAESYLKSVDGVGLIVQE | -0.43 |
| HMRKTLSQEAYEKIKQNLEDGVYQGYINGRQVARDLDIGFTPVREAFLQLQSEGLIRKEDNVGYFV | -0.107 |
| HMRKTYHVDAYQDDKWWVLQVQEMPNAISQVKSLDQADEWIREAINIVSNEPEDSFDVVIIPV | -0.404 |
| HMRKVTDTHELSSVVKSVIDQWEEKAAEYRAGKSGLLGFFVGEVMKKTGGAADPEAAKSLLQDRLD | 0.0219 |
| HMRKYEAVPASVVPAQIQEYVAKSNFPNQYIRKIERNKYTWEIELSNGLEIKFDRQFNVIGFD | -2.59 |
| HMRLGQLQSVEEPKFIEVHSGKQGDIGEQTIVEYEIDAKYATGDATINLKLLFRDGLFEIYNFNFSSEALL | 0.133 |
| HMRLNIRTKNNYSYYTIIKDYTNLNGKRTTTIFEKLGNQQQVEERFGKVNTIENIKKYIEELNNE | -1.65 |
| HMRLPAISYSFARKHGVVLRLDGDRPVASLREGADPAILIEVKRHLDGAMGVEKVSEAAFDQLLSTTYA | -1.53 |
| HMRLPNGYGSITKLSGKRRKPFMVRITTGYDNEGKQLMSVLGYYATRTEALAVLAEYNKNPYNPI | -3.36 |
| HMRLPNHYGSVVKLSGKRRRPFMVRGGVYGYDDRGYPQYVIVGYTETREQGLTMLAEYNRNP | -3.17 |
| HMRLPVELTDREVEVLRLLAQAMSNGEIARELYIGEATVKTHVSNVLQKLGARDRVAAVVWAHRYGL | -2.08 |
| HMRLSAADLQSYLKGMDYPASRQDLIAHARGHNAPEEAVATLEQFSDRTYRSAADVSVEFGRE | 0.254 |

| Sequence | soluble fraction (log2) |
| --- | --- |
| HMRLSPTMVETLIAMLNRNAYPAYENNSRTFASLEERGLIQPDIEGNWSLTDTGHQTALKLLK | 0.463 |
| HMRLSVRQRMSDVLGALKTQAFVEFTQLFRPQEGRMGVTVTFSAILELLREGLIEIVQSEPFAPIHVRAGA | 0.183 |
| HMRMDKHLWLSLLRLINEGSAEELQTKKDELLQSLERLRITRGPVRGDVLRVVRLIDEELVSRLHLDQR | -2.58 |
| HMRMTKPLPFDLAAFRNEFGFTKSIIMQEVGVSRHIYDNVERTNATPPEFYDDFVSFFQRHGQ | -1.88 |
| HMRMTPRQALDDLIREREETYAAVSRLLGRNTAYIQQYIKRGTPARLDQSDIAQLALHFDVPAKLLGGKE | -1.16 |
| HMRMTTEQLMSFLKQHFPQVADNFTVRISDEGRLSVEMPVNDKHLRPGGTVSGPSMFALADVAFYLAILQ | -1.56 |
| HMRNERDRQLYAAMEKLKAEYREALYLVYFENMSYRDAAAVMAQTEKQISNLVYRGKQSLKTILEQEGF | -2.6 |
| HMRNGGHTVYRNNGSLFIVVRDGDKLESVASEFRVSPKKLIKYNDLDIHSNVKTGDMIYIRPKA | -0.423 |
| HMRNLYEILGVSKDAPQGEIKSAYRKLAKTYHPDLNPNNEKAAELFKEINQAYEVLSDETKRRHYDQFGEA | 0.342 |
| HMRNMTDYLTIVRAVYGGLSQRQAATTYHVSRNTVSLLIRHAKNQGWLTVEDLSRADAAAFSPA | -0.393 |
| HMRNMVSVLDHIEGIGPKRRQLLYEHYGELEKIKEASVEEMAGLDGMNRPAAEAVYNFFLAQRNL | -0.247 |
| HMRNSSLQTDLELRAYVIDGLNHFWTPEEIAGRWSLAHPDRPVSFATIYRHIKRKLLPGIEPKTHLRRRGK | -2.54 |
| HMRPEARAASLSDEERKIFDYLAANGEKTIDNISVAVKMSAADILKNITLMSAKGLVYMPSAGRYGVKGN | -0.297 |
| HMRPNREKDMADLEKLAPFLLQMLTNYAQMTGDEKPLNAFITRFGYAAQIRDIQDFFMGPWHPA | ≥ 1.04 |
| HMRPQIAIDAIQALSLIMRTENKEDPTYLESRRVVSDAVAKRLSLNPTDLNRAWSRAPRDHQIAVLSALTQ | -1.34 |
| HMRPRGTRLPTGWTPSSDALDWTKAEKPGLDPLQTLEKFRDYWTAQPGQKGVKTDWDATWRNWVRREIP | -0.104 |
| HMRPSGTAGILRYLSSGAIRGIGATTAQRLVSEFGEKTLDVMENEPERVAMLKGISKSKAEDFSLQLKQS | -0.0414 |
| HMRPTAWEQVSRHIDQHGSIGNTEVRKAMETENVLAASKQIKKWLEQGLLIILNPTAGTRARRYSKPNM | -1.19 |
| HMRPTDVLNYDESMRILNFSNNRVGFKHLMDAKGIEQVIFKNRKIGYRKSEILALKSELEAEQK | -0.958 |
| HMRPYAYGTGRRKSSTARVHLIPNGSGSITINGRTLDEYFGLETLKLIVRQPLAATETAEKFDVEATVV | -0.638 |
| HMRQDEKTLLYWIGAQVKREGKLIKTSTAQYLVEKTGTDMENLEKELEKLFAYTLDEKEITPAAIDEI | -1.77 |
| HMRQIRELFRLKFGSLLPTSDRQIAAQLGVARSTVAEYLERARAAGLSWPLPLDLSDADLEERLFA | -3.08 |
| HMRQMSEELQSAKEALEDRRTQEKAVLLLMEHRNISNDEAHRLLRKLAMDQGKRLPEVARALVSMAGVL | -0.319 |
| HMRQSKMREAILAAVSAQKLEISDLHVWRIGEQRYAAIIGLATTQAESVSALRDSLAQMDKLVHLTIDQ | -2.21 |
| HMRQTGWVTADSLNVRARPSLQAERVEKVTYGQQVQIMFKQGQWYQIATENGKIGWVSSEYIAAVSP | -2.4 |
| HMRRELDSEHKRQEILFAAKRLLLAEGYDATSMSRLAKEAGVAPNTLYWYFKDKDELLIAILDELVAE | -2.74 |

| Sequence | soluble fraction (log2) |
| --- | --- |
| HMRRGKLGMASRLEQIPGIGPKKRKALLKAFGNSIDAIKSAPVEDLMKVKGINLVLAESIKEL | -0.11 |
| HMRRMTEEQSKLFQGLVSIVQTTLVADMEKGAVTPLLIAEKVDFVADNLYPGKDIDRKEAVAELIRRFSLW | -1.67 |
| HMRRSKQERQQAIKTLISNEQIQRQEDLVRKLNEAGWEVTQATISRDITEMQLVKVPLPTGGFAYAVM | -0.0517 |
| HMRRSKVMLESILDEIPQMGQARRAALLEQFGSVAALRKASLAEIAMTPGIGEKIAVIIFEYLQKSSH | -1.69 |
| HMRRTEKEIEQDVMRAIATIISEKGISSVTIKEVSNLSKTDVIVLERRFKNDEGLIKAYTSQ | -1 |
| HMRSFADEGTVEEWIKQAIRENEAAVADYRKGKETAVKFLMGQVMRLSKGEANPADLEDKIKAKLD | 0.0142 |
| HMRSFGTVAQARGRWKAFYVGPDKRRHTPGVTFSNPIRAQGWLAQELTLIELGQWTPPAQRREKAEVAS | -2.26 |
| HMRSIVETLTDRELEIFQLIGNGFSTGEIARRLNLSPHTIETHRKNIKDKLGLSSGSELNKQAIQWVLSS | 0.244 |
| HMRSKTSYAVWTPIQIDAGSQMQALQSKGFNTVLMEGGISVGIRSDKAQAQALLNRLQGAGFTGQLREVN | -0.173 |
| HMRSLATFEEEKIALRFWNYLQSEGIKSTLEEEGPRDWVIWVIDEEKIPSATQSLEKFNLNPDDPAFSN | -0.784 |
| HMRSLVDRSVQAVTDHIRENALRVGDSLPGEAYFATSLGVSRAVMREAFGALAALRVIDVGNGRKPRVGAI | -0.687 |
| HMRSMEKRLTAKVKRVQEGVQAKSQAGEQPFEVVKLMQRFPKLMQFGKHAEAETVLDKALELLGEE | -0.0318 |
| HMRSQLALVVRTGESQRLDNFLVNNLAWKSRNRLQGLIREGLVTVNGEKTKASRRVHLDDLVEIHL | -1.31 |
| HMRSTIYEFTVPPGQLESIRLDVYITSFVENATRSKVQEAIKQGYVWVNGKHEKASYTMLPGDKIYIELPI | -2.65 |
| HMRSVEVAAEPGMVLEDRQTGFVGAVVAVEKSGGTHLVVLEDRHGLRRGFPLGPGFWLEGRPVVLAPPP | -1.01 |
| HMRTANREKRIEASVKMMKAGYPVGYIIARVFMYEGWEEDYRQLLIYLSEKIPKDVSNPITFEVIS | -0.622 |
| HMRTEGNLGAKVRVLRRSQGMTQAELARRLGISPSYLNLIEHNRRSFTADLLVKLAKILPVNLKT | -2.5 |
| HMRTITYSITPAHAGMSVERYLKQQHGYSTRTLVKLKHYPQGLQLNGQHARTVDLLQAGDTLAVTFLD | -2.42 |
| HMRTLSAGVAGRLRADILNGLLEPGRRLGMAELTERYGAGMSPVREALSRLVGEGLVQSEGQRGFRVA | -0.446 |
| HMRTMFGQRLRLARKRAGLSMQALADRVTPSVSAQAISKYEADQMMPSSSVLVGLGKALGVSLDFLVGGQ | -1.41 |
| HMRTNVDISPKILEWVLSQVRNRTTNDVIETIQIWIKGEKPPTFNQVEKISKATGVPLGYFFLKTPPVED | -1.34 |
| HMRTPLTGREEQVATLIGRGMTNSEIAESLSVDESTVKTHIGSILRKVHLRDRLQVALWFHGLPIE | -0.67 |
| HMRTTYKTRLETLLAGPMSAGDRRFASSLLDFYNRKNRLTPGRARFVAQLEDRYSAEALAARQG | -1.19 |
| HMRTVEQFQIRKIYAISNALGISDSRADEDELHVLVSGLTGKDSIKELTYREASVVIERLEELQ | -2.22 |
| HMRVDDITDTILNVLKEQGGFISVTDKSSPETINKLFGVSKKTYKKAIGAIYRKKLIIIEDDGIRLNS | -2.4 |
